Columns and labels:
[1] = molecular target: endogenous FGD1 (faciogenital dysplasia protein 1) (UniProt P98174); experiment: co-immunoprecipitation (anti-GFP nanobody, GFP-Trap) with FGD1 immunoblot; settings: lysates of MDA-MB-231 cells; 1% of total lysate loaded as input; parent: 100
[2] = molecular target: GST-FGD1^18-335 (UniProt P52734); experiment: pull-down; GST-tagged FGD1 fragment (2 µM) immobilised on Glutathione Sepharose 4B beads, incubated with MDA-MB-231 cell lysates (untransfected or transfected with TKS5^GFP constructs) 2 h at 4°C; 50 mM Tris-HCl pH 7.5, 150 mM NaCl, 0.5 mM EDTA, 10 mM MgCl2, 10% glycerol, 0.7% NP-40; immunoblotting
[3] = molecular target: TKS5^GFPW1092A (human); experiment: co-IP; GFP-Trap (anti-GFP nanobody beads) from NP-40 lysates of MDA-MB-231 cells expressing GFP-tagged constructs, 1 h 4°C; immunoblotting of bound proteins

Chain of UniProt P52734 (P52734 18-335): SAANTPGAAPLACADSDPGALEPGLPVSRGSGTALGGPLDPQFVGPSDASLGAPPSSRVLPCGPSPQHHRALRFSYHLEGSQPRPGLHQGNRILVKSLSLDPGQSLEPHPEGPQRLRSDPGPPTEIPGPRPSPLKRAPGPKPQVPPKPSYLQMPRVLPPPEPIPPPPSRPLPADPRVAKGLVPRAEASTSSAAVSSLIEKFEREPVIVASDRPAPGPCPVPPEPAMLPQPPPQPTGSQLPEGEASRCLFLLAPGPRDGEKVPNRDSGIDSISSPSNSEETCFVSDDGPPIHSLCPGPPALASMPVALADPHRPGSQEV
Chain of TKS5^GFP (Q5TCZ1 whole entry): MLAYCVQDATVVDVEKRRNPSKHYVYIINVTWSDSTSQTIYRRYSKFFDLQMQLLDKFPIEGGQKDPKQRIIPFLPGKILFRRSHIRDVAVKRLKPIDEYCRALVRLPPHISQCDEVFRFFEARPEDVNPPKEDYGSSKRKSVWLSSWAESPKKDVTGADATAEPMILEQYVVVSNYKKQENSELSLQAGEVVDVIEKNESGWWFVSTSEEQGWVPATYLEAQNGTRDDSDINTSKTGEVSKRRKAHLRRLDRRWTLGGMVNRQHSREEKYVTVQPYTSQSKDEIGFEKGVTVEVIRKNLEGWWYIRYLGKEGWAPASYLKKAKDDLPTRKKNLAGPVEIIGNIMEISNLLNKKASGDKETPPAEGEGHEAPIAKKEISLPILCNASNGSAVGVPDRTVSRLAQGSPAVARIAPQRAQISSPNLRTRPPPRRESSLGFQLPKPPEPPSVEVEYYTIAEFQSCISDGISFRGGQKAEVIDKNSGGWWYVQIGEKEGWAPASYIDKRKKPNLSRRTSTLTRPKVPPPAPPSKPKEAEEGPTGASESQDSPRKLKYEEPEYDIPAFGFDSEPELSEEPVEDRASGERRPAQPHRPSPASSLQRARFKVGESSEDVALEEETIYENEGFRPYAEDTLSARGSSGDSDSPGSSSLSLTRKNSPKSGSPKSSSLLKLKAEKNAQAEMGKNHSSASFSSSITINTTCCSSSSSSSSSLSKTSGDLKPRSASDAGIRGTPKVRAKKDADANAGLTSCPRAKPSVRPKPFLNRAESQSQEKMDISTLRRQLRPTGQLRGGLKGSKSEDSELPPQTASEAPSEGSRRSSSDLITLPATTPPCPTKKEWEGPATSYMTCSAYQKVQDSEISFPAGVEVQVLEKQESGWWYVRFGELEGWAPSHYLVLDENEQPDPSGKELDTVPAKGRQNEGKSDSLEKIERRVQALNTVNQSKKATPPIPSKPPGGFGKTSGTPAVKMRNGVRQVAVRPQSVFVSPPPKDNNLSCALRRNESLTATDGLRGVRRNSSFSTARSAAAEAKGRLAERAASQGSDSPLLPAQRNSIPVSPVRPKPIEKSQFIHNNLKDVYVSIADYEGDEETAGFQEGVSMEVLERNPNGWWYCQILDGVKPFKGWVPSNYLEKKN

percent of the input pulled down (% of the input) [2]	also measured	Molecule
–	percent of parent (% of wild-type TKS5) [1]: 91	TKS5^GFP W861A
2.85	–	TKS5_324-1118^GFP (domain or fragment)
1.35	–	TKS5^GFP (natural protein)
–	percent of the wild-type TKS5 binding capacity (% of wild type) [3]: 10	endogenous FGD1 (faciogenital dysplasia protein 1) (natural protein) MHGHRAPGGAGPSEPEHPATNPPGAAPPACADSDPGASEPGLLARRGSGSALGGPLDPQFVGPSDTSLGAAPGHRVLPCGPSPQHHRALRFSYHLEGSQPRPGLHQGNRILVKSLSLDPGQSLEPHPEGPQRLRSDPGPPTETPSQRPSPLKRAPGPKPQVPPKPSYLQMPRMPPPLEPIPPPPSRPLPADPRVAKGLAPRAEASPSSAAVSSLIEKFEREPVIVASDRPVPGPSPGPPEPVMLPQPTSQPPVPQLPEGEASRCLFLLAPGPRDGEKVPNRDSGIDSISSPSNSEETCFVSDDGPPSHSLCPGPPALASVPVALADPHRPGSQEVDSDLEEEDDEEEEEEKDREIPVPLMERQESVELTVQQKVFHIANELLQTEKAYVSRLHLLDQVFCARLLEEARNRSSFPADVVHGIFSNICSIYCFHQQFLLPELEKRMEEWDRYPRIGDILQKLAPFLKMYGEYVKNFDRAVELVNTWTERSTQFKVIIHEVQKEEACGNLTLQHHMLEPVQRIPRYELLLKDYLLKLPHGSPDSKDAQKSLELIATAAEHSNAAIRKMERMHKLLKVYELLGGEEDIVSPTKELIKEGHILKLSAKNGTTQDRYLILFNDRLLYCVPRLRLLGQKFSVRARIDVDGMELKESSNLNLPRTFLVSGKQRSLELQARTEEEKKDWVQAINSTLLKHEQTLETFKLLNSTNREDEDTPPNSPNVDLGKRAPTPIREKEVTMCMRCQEPFNSITKRRHHCKACGHVVCGKCSEFRARLVYDNNRSNRVCTDCYVALHGVPGSSPACSQHTPQRRRSILEKQASVAAENSVICSFLHYMEKGGKGWHKAWFVVPENEPLVLYIYGAPQDVKAQRSLPLIGFEVGPPEAGERPDRRHVFKITQSHLSWYFSPETEELQRRWMAVLGRAGRGDTFCPGPTLSEDREMEEAPVAALGATAEPPESPQTRDKT
